According to patent US20220025003A1 (University of Washington, published 2022):
Changes are numbered by the printed parent chain. Names may count otherwise. Like-named read-outs stand apart in the source and are kept apart here.

Experiments:
[1] = target: T1, NS3aH1-mCherry, no drug (DMSO) (hepatitis C virus); assay: colocalization, confocal microscopy, NIH3T3 cells, no drug
T1 construct: also called NS3a-mCherry

[2] = target: T2, NS3a/grazoprevir complex (biotinylated NS3a_3 with grazoprevir) (hepatitis C virus genotype 1a); assay: yeast surface display
T2 construct: See note of m30; also called grazoprevir/NS3a complex

[3] = target: T2, NS3a/grazoprevir complex (biotinylated …); assay: yeast surface display titration, apparent KD; NS3a_3, 10 drug:1 NS3a
[4] = target: T3, NS3a/danoprevir complex (biotinylated NS3a_3 with danoprevir) (hepatitis C virus genotype 1a); assay: yeast surface display, flow cytometry
T3 construct: See note of m30; also called danoprevir/NS3a complex

[5] = target: T2, NS3a/grazoprevir complex (biotinylated …); assay: yeast surface display, flow cytometry
[6] = target: T3, NS3a/danoprevir complex (biotinylated …); assay: yeast surface display
[7] = target: T3, NS3a/danoprevir complex (biotinylated …); assay: yeast surface display titration, apparent KD; NS3a_3, 10 drug:1 NS3a
[8] = target: T4, NS3a/asunaprevir complex (biotinylated NS3a_3 with asunaprevir) (hepatitis C virus genotype 1a); assay: as above
T4 construct: See note of m30

[9] = target: T2, NS3a/grazoprevir complex (biotinylated …); assay: ratio of apparent KD against the danoprevir/NS3a complex of the same clone
[10] = target: T4, NS3a/asunaprevir complex (biotinylated …); assay: as above
[11] = target: T3, NS3a/danoprevir complex (biotinylated …); assay: yeast surface display; relative binding, too weak for a full titration curve
[12] = target: T2, NS3a/grazoprevir complex (biotinylated …); assay: as above
[13] = target: T4, NS3a/asunaprevir complex (biotinylated …); assay: as above
[14] = target: T3, NS3a/danoprevir complex (biotinylated …)
[15] = target: T2, NS3a/grazoprevir complex (biotinylated …); assay: yeast surface display; against the NS3a/danoprevir complex
[16] = target: T4, NS3a/asunaprevir complex (biotinylated …); assay: as above

B1: ANR-ANR-BFP-CAAX (other)
chain: MGELDELVYLLDGPGYDPIHSDGSGTGSGTGSGTGTTSGTGTGGSTGGELDELVYLLDGPGYDPIHSDGSGTGSGTGSGTGTTSGTGTGGSTGEQKLISEEDLGSGSSELIKENMHMKLYMEGTVDNHHFKCTSEGEGKPYEGTQTMRIKVVEGGPLPFAFDILATSFLYGSKTFINHTQGIPDFFKQSFPEGFTWERVTTYEDGGVLTATQDTSLQDGCLIYNVKIRGVNFTSNGPVMQKKTLGWEAFTETLYPADGGLEGRNDMALKLVGGSHLIANIKTTYRSKKPAKNLKMPGVYYVDYRLERIKEANNETYVEQHEVAVARYCDLPSKLGHKLNRKHKEKMSKDGKKKKKKSKTKCVIM
B1: binds [1].

B2: GNCR1, yeast surface display (C-terminal fusion to Aga2) (designed binder)
chain: KDNSSTIEGRYPYDVPDYALQASGGGGSGGGGSGGGGSASHMDIEKLCKKAEEEAKEAQEKADELRQRHPDSQAAEDAEDLANLAVAAVLTACLLAQEHPNADIAKLCIKAASEAAEAASKAAELAQRHPDSQAARDAIKLASQAARAVILAIMLAAENPNADIAKLCIKAASEAAEAASKAAELAQRHPDSQAARDAIKLASQAAEAVERAIWLAAENPNADIAKKCIKAASEAAEEASKAAEEAQRHPDSQKARDEIKEASQKAEEVKERCKSLEGGGSEQKLISEEDL
B2 was tested, and the Kd [2] was under 200 nM and the Kd [3] was 140 nM.

B3: D5 W177D, yeast surface display (designed binder)
chain: SSDEEEARELIERAKEAAERAQEAAERTGDPRVRELARELKRLAQEAAEEVKRDPSSSDVNEALKLIVEAIEAAVDALEAAERTGDPEVRELARELVRLAVEAAEEVQRNPSSSDVNEALLTIVIAIEAAVNALEAAERTGDPEVRELARELVRLAVEAAEEVQRNPSSREVNIALDKIVLAIQEAVESLREAEESGDPEKREKARERVREAVERAEEVQRDPSGWLNH
notes: also called point mutant of the D5 interface, W177D
B3: no binding (tested: 1 µM NS3a with avidity, 10 µM danoprevir) [4].

B4: G3 M112E, yeast surface display (designed binder)
chain: DIEKLCKKAEEEAKEAQEKADELRQRHPDSQAAEDAEDLANEAEAAVLAACSLAQEHPNADIAKLCIKAASEAAEAASKAAELAQRHPDSQAARDAIKLASQAARAVILAIELAAENPNADIAKLCIKAASEAAEAASKAAELAQRHPDSQAARDAIKLASQAAEAVERAIWLAAENPNADIAKKCIKAASEAAEEASKAAEEAQRHPDSQKARDEIKEASQKAEEVKERCKS
notes: also called G3 interface point mutant M112E
B4: no binding [5].

B5: G3 A175Q, yeast surface display (designed binder)
chain: B4 chain with E112M, A175Q
notes: See note of m25; also called G3 interface point mutant A175Q
B5: no binding [5].

B6: Tom20-BFP-ANR-ANR (other)
chain: MVGRNSAIAAGVCGALFIGYCIYFDRKRRSDPNFMSELIKENMHMKLYMEGTVDNHHFKCTSEGEGKPYEGTQTMRIKVVEGGPLPFAFDILATSFLYGSKTFINHTQGIPDFFKQSFPEGFTWERVTTYEDGGVLTATQDTSLQDGCLIYNVKIRGVNFTSNGPVMQKKTLGWEAFTETLYPADGGLEGRNDMALKLVGGSHLIANIKTTYRSKKPAKNLKMPGVYYVDYRLERIKEANNETYVEQHEVAVARYCDLPSKLGHKLNSGSGEQKLISEEDLGSGTGSGTGSGTGTTSGTGTGGSTGGELDELVYLLDGPGYDPIHSDGSGTGSGTGSGTGTTSGTGTGGSTGGELDELVYLLDGPGYDPIHSDGSGATNFSLLKQAGDVEENPG
B6: binds [1].

B7: DNCR1, yeast surface display (C-terminal fusion to Aga2) (designed binder)
chain: KDNSSTIEGRYPYDVPDYALQASGGGGSGGGGSGGGGSASHMSSDEEEARELIERAKEAAERAQEAAERTGDPRVRELARELKRLAQEAAEEVKRDPSSSDVNEALKLIVEAIEAAVDALEAAERTGDPEVRELARELVRLAVEAAEEVQRNPSSSDVNEALLSIVIAIEAAVHALEAAERTGDPEVRELARELVRLAVEAAEEVQRNPSSREVEHALMKIVLAIYEAEESLREAEESGDPEKREKARERVREAVERAEEVQRDPSGWLNHLEGGGSEQKLISEEDL
Work on B7 yielded a Kd [6] of under 200 nM, a Kd [7] of 190 nM and a Kd [3] of 2900 nM. For the same binder, the Kd [8] was 6300 nM, the Fold drug specificity [9] was 15 fold and the Fold drug specificity [10] was 33 fold.

B8: D5, yeast surface display (C-terminal fusion to Aga2) (designed binder)
chain: B7 chain with S164T, H174N, E215N, H216I, M219W, Y226Q, E229V
B8: binds [11]; binds [12]; binds [13].

B9: DNCR2, yeast surface display (C-terminal fusion to Aga2) (designed binder)
chain: B7 chain with L163H, I167Y, V173I, H174F, E213N, K220R, E227L, S231N
Work on B9 yielded a Kd [14] of 0.036 nM, a fold specificity [15] of over 20000 fold and a fold specificity [16] of over 20000 fold. The Kd [3] was 2000 nM, the Kd [8] was 770 nM and the Fold drug specificity [9] was 56000 fold. The Fold drug specificity [10] was 21000 fold.
